Reference: patent US20090180995A1, “NOVEL ANTICOAGULANT POLYPEPTIDES AND COMPLEX” (National University of Singapore, priority 2005, published 2009)
“Also recorded” adds a separate entry of the source.

Assays:
FVIIa-sTF [1] = molecular target: T1, FVIIa-sTF (Homo sapiens, UniProt P08709); experiment: FVIIa-sTF amidolytic activity; format: biochemical; conditions: FVIIa-sTF (30 nM)/S-2288
T1 construct: made in house; host or cells: Saccharomyces cerevisiae (sTF); human plasma (FVIIa)
Protocol: Serine protease specificity—The selectivity profile of anticoagulant proteins and their complex was examined against 12 serine proteases—procoagulant serine proteases (FIXa, FXa, FXIa, FXIIa, plasma kallikrein and thrombin), anticoagulant serine protease (APC), fibrinolytic serine proteases (urokinase, t-PA and plasmin) and classical serine proteases (trypsin and chymotrypsin). Various concentrations of purified hemextin A/hemextin B and reconstituted hemextin AB complex were preincubated with each of the enzymes (Table 1) for a period of five minutes at a temperature of 37° C., followed by the addition of appropriate chromogenic substrate.
For studies with FXIa, kallikrein and urokinase, the appropriate substrates were determined prior to their screening against the inhibitors. For FXIa, the Vmax for the amidolytic activity corresponding to the chromogenic substrates S-2266, S-2302 and S-2366 was determined. S-2302 was the substrate with the highest Vmax and thus was used in the screening studies. Similar studies with kallikrein and urokinase were carried out with substrates S-2266, S-2302 and S-2288 for kallikrein and S-2444 and S-2484 for urokinase. […] The kinetic rate of substrate hydrolysis (mOD/min) was measured over 5 min.

[2] = tested on: hemextin A-hemextin B interaction; experiment: ITC, hemextin A-hemextin B interaction; format: binding, Hemachatus haemachatus
FVIIa-sTF [3] = molecular target: T1, FVIIa-sTF; experiment: Kinetics of inhibition of FVIIa-sTF amidolytic activity on S-2288; format: biochemical
Protocol: Determination of kinetic constants for substrate hydrolysis—All studies were in assay buffer containing 50 mM Tris-HCl, pH 8.0, containing 150 mM NaCl, 10 mM CaCl2, and 1% BSA at 37° C. The kinetics of hydrolysis of the chromogenic substrate S-2288 by FVIIa-sTF was measured prior to examining the inhibitory effects of individual hemextins and the hemextin AB complex. Reactions were initiated by the addition of S-2288 (0-5 mM) to the individual wells of a 96-well plate containing FVIIa (30 nM) in complex with sTF (100 nM) in a final volume of 180 μl. Initial reaction velocities were measured as a linear increase in the absorbance at 405 nm (A405 nm) over 5 min, with a SPECTRAmax Plus® temperature-controlled microplate spectrophotometer (Molecular Devices, Sunnyvale, Calif.). The Km was derived from the nonlinear regression fit of the determined velocities, the value of which was 2.79 mM.
Kinetics of inhibition—The inhibitory potency of anticoagulant complex was measured over a range of substrate concentrations. Reactions were initiated by the addition of S-2288 to premixed enzyme-cofactor and inhibitor in the wells of a microtiter plate. Reactions with FVIIa-sTF contained 0.0125-0.05 μM of inhibitor complex and 0 to 3 mM of S-2288.
V=Vmax [S]/(1+[I]Ki)/{Km+[S]} (Eq. 1)

[4] = Size exclusion chromatography of hemextin AB complex in different buffers; format: physicochemical
Protocol: Size exclusion chromatography (SEC) studies—All SEC experiments were carried out at room temperature on a pre-packed Superdex 75 gel filtration column (1.6×60 cm) using a ÄKTA Purifier system (Amersham Biosciences, Uppsala, Sweden). The column was eluted with 50 mM Tris-HCl buffer (pH 7.4) or the specified elution buffer, at a flow rate of 1 ml/min. The sample volume applied to the column was 4 ml. The column was calibrated using ovomucoid (28 kD) ribonuclease (15.6 KD), cytochrome C (12 KD), apoprotinin (7 KD) and pelovaterin (4 KD) (20) as molecular weight markers. The void volume was determined by running Blue Dextran. The column was equilibrated with at least two bed volumes of the elution buffer prior to each run. Electrostatic contributions in the hemextin AB complex formation were studied by monitoring its elution in 50 mM Tris-HCl buffer (pH 7.4) of different concentrations of NaCl (75 mM and 150 mM). Hydrophobic contributions for the complex formation were determined by recording its elution in 50 mM Tris-HCl buffer (pH 7.4). In both studies, the column was first equilibrated with the desired buffer prior to the application of the reconstituted hemextin AB complex in the respective buffer to the column. Elution of protein was monitored by absorbance at 280 nm.

T1 sequence (P08709 61-212 limits assumed): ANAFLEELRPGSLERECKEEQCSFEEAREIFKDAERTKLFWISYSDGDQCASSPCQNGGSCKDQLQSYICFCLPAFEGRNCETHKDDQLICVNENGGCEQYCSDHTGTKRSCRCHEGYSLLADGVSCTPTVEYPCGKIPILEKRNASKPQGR
T1 sequence (P08709 213-466 limits assumed): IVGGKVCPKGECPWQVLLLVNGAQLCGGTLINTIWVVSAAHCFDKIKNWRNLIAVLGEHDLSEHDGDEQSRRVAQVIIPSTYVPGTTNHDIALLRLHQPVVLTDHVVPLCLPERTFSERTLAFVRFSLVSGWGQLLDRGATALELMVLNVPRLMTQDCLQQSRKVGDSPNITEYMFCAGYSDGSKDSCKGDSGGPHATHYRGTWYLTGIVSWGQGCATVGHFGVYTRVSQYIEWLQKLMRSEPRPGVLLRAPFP
T1 sequence (P13726 33-251 partner limits assumed): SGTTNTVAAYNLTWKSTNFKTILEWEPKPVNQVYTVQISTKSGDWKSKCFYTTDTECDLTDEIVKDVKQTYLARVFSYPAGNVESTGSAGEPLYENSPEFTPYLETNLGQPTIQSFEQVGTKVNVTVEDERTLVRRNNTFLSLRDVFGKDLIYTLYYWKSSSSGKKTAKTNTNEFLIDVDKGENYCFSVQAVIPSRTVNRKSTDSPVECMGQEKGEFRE

B1: hemextin A (protein)
chain: LKCKNKLVPFLSKTCPEGKNLCYKMTMLKMPKIPIKRGCTDACPKSSLLVKVVCCNKDKCN
inhibition of FVIIa-sTF amidolytic activity (FVIIa-sTF [1]): potent inhibitory activity

B2: hemextin AB complex: synergistic 1:1 tetrameric complex of hemextin A and hemextin B, reconstituted from equimolar proteins (protein)
chain 1: B1 chain
chain 2: LKCKNKVVPFLKCKNKVVPFLCYKMTLKKVPKIPIKRGCTDACPKSSLLVNVMCCKTDKCN
Ka ([2]; 10 ° C., 50 mM Tris (pH 7.4)): 640000 M⁻¹ | Ka ([2]; 25 ° C., 50 mM Tris (pH 7.4)): 2.07e+06 M⁻¹ | Ka ([2]; 37 ° C., 50 mM Tris (pH 7.4)): 2.23e+06 M⁻¹ | Ka ([2]; 37 ° C., 50 mM Tris (pH 7.4) + 35 mM NaCl): 630000 M⁻¹ | Ka ([2]; 37 ° C., 50 mM Tris (pH 7.4) + 75 mM NaCl): 330000 M⁻¹ | Ka ([2]; 37 ° C., 50 mM Tris (pH 7.4) + 100 mM NaCl): 20000 M⁻¹ | Ka ([2]; 37 ° C., 50 mM Tris (pH 7.4) + 125 mM glycerol): 320000 M⁻¹ | Ka ([2]; 37 ° C., 50 mM Tris (pH 7.4) + 150 mM NaCl): 2000 M⁻¹ | Ka ([2]; 37 ° C., 50 mM Tris (pH 7.4) + 175 mM glycerol): 200000 M⁻¹ | Ka ([2]; 37 ° C., 50 mM Tris (pH 7.4) + 250 mM glycerol): 50000 M⁻¹ | Ka ([2]; 45 ° C., 50 mM Tris (pH 7.4)): 1.97e+06 M⁻¹ | binding constant (Ka), hemextin AB complex formation ([2]; ITC): 2.23e+06 M⁻¹ | nature of inhibition of FVIIa-sTF activity (FVIIa-sTF [3]; S-2288, Lineweaver-Burk plots): non-competitively; also recorded: non-competitive inhibitor | Ki (FVIIa-sTF [3]; S-2288, secondary plot): 25 nM | Kcat (FVIIa-sTF [3]; [Inhibitor] 0.0125 μM): 40.93 s⁻¹ | Vmax (FVIIa-sTF [3]; [Inhibitor] 0.0125 μM): 7.37E−05 | Kcat (FVIIa-sTF [3]; [Inhibitor] 0.0250 μM): 30.58 s⁻¹ | Vmax (FVIIa-sTF [3]; [Inhibitor] 0.0250 μM): 5.51E−05 | Kcat (FVIIa-sTF [3]; [Inhibitor] 0.05 μM): 20.87 s⁻¹ | Vmax (FVIIa-sTF [3]; [Inhibitor] 0.05 μM): 3.75E−05 | inhibition of FVIIa-sTF amidolytic activity (FVIIa-sTF [1]): potent inhibitory activity | SEC elution of the complex, 75 mM NaCl ([4]; 50 mM Tris-HCl (pH 7.4), 75 mM NaCl): the tetramer starts breaking down to dimer | SEC elution of the complex, 150 mM NaCl ([4]; 50 mM Tris-HCl (pH 7.4), NaCl 150 mM): eluted mostly as a dimer and monomer | SEC elution of the complex, high glycerol concentration ([4]; Superdex 75, buffers containing glycerol): the tetramer breaks down to dimer and monomers
